Experimental data from the nanobody polyreactivity screen of Harvey et al. (2022).

Experiment: yeast display, Sf9 membrane polyspecificity reagent, FACS + sequencing; frameworks hold sequencing errors
Outline: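 Galactose induction of a Saccharomyces cerevisiae BJ5465 synthetic nanobody display library ran 36–48 hours. The cells were then stained for 1 hour at 4 °C with 10% biotinylated, detergent-solubilized Sf9 membrane reagent, pulled down on streptavidin microbeads and FACS-sorted into low and high (top ~1%) gates on expression and reagent-binding fluorescence. Labels for polyreactivity follow the gate of origin.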
In the case of “QVQLVESGGCLVQAGGSLRLSSAASGFTFRRYTMGWYRQAPGKVRELVAAISRSGGSTFYADSVKGRFTISRDNAKNTVYLQLNSLKPEDSAVYYCNAGRTYTALNGDYWGHGTQVTVSS”, the “polyreactivity (PSR sort gate)” value is reported as “high polyreactivity”.
With “QVQLVESGGGLVQAGGSLRLSCAASGITFNNNGMGWYRQAPGKERELVASIRSGGRTNYADSVKGRFTISRDNAKNTVYLQMNSLKPEDTAVYYCAAVWYTSRQKYDYWGQGTQVTVSS” the “polyreactivity (PSR sort gate)” value was “low polyreactivity”.
For “QVKLVESGGGIVQAGGSLRLSCAASGRIFYSNVMGWYRQAPGKERELVATISGSSGRTYADSVKGRFTISRDNAKNTVYLQMNSLKPEDTAVYYCAADSPSVWGYRYDYDYWGQGTQVTVSS”, the “polyreactivity (PSR sort gate)” value was “low polyreactivity”.
For “QVQLVVSGGGLVQAGGSLRLSCAASGIIFPFYVMGWYRQAPGKERELVAAITWSGDGTYYADSVKGRFTISRDNAKNTVYLQMNSLKPEDTAVYYCAAQWYYGGVKYYYWGQGTQVTVSS”, the “polyreactivity (PSR sort gate)” value was “low polyreactivity”.
For “QVQLVESGGGLVQAGCSLRLSCAASGLIIPVYVMGWYRQAPGKERELVADITTVGSTYADSVKGRFTISRDNAKNTVYFQMNSLKPEDTAVYYFADDPPAQQYWWDHGNYWGQGTQVTVSS”, the “polyreactivity (PSR sort gate)” value was “low polyreactivity”.
In the case of “QVQLVESGGGLVQAGGSLRLSCAASGSIFQYYAMGWYRQAPGKEREFVAAISSSGGSTYYADSVKGRFTISRDNAKNTVSLQMNSLKPEDNAVYYCNTPYNGFRFDYWGQGTQVTVSS”, the “polyreactivity (PSR sort gate)” value is reported as “low polyreactivity”.
With “QVQLVESGGGLVQAGGSLRLSCAASGRIFGWYAMGWYRQAPGKERELVAAITWSGTSTYYAYSVKGRFTISRDNAKNTVYLQMNSLKPEDTAVYYCAAEPGWTMDYWGQGTQVTVSS” the “polyreactivity (PSR sort gate)” value was “low polyreactivity”.
In the case of “QVQLVESGGGLVQAGGSLRLSCAASGSTFYPYAMGWYRQAPGKEREFVAAIRSSGTSTYYADSVKGRFTISRDNAKNTVYLQMNSLKPEDTEVYYGAARVRGDSVSRTKPASIGGGSWGQGTQVTVSS”, the “polyreactivity (PSR sort gate)” value is reported as “high polyreactivity”.
In the case of “QVQLVESGGGLVQAGGSLRLSCAASGRTFRNNAMGWYRQAPGKERELVAAISRTGGRTYYADSVKGRFTISRDNAKNTVYLQMNSLKPEDTAVYYCNAAYLVREYDYWGQGTQVTVSS”, the “polyreactivity (PSR sort gate)” value is reported as “high polyreactivity”.
With “QVQLVESGGGLVQAGGRLRLSCAASGRTFRPYAMGWYRQAPGKERELVAAITSGGSTYYADSVKGRFTISRDNAKNTVYFQMNSLKPEDTAVYYCNAKYYYQPPYDYWGQGTQVTVSS” the “polyreactivity (PSR sort gate)” value was “low polyreactivity”.
For “QDQLVESGGGLVQAGGSLRLSCAASGSIFYRNAMGWYRQAPGKERELVAAISSDGSTNYADSVKGRFTISRDNAKNTVYLQMNSLKPEDTAVYYCAAPWTQILDYWGQGTQVTVSS”, the “polyreactivity (PSR sort gate)” value was “low polyreactivity”.
With “QVQLVESGGGLVQAGGSLRLSCAASGRTFGVYAMGSYRQAPGKEREFVATIRTTGSTNYADSVKGRFTISRDNAKNTVYLQMNSLKTEDTAVYYCAARQRQSKYYPYTTFTYDYWGQGTQVTVSS” the “polyreactivity (PSR sort gate)” value was “high polyreactivity”.
In the case of “QVQLVESGGGLVQAGGSLRLICAASGITFSLYVKGRYSQAPGNERELVAAISTSGGSTYYADSVKGRFSLSRDNPKKSVYFQMNSLKPEDTSVYYCAAVYVLSWYVQTYDYWGQGTQVTVSS”, the “polyreactivity (PSR sort gate)” value is reported as “low polyreactivity”.
For “QVQLVESGGGLVQAGGSLRLSCAASGSTFSDYAMGWYRQAPGKERELVAGITETGTTTYYADSVKGRFTISRDNAKNTVYLQMNSLKPEDTAVYYCAAYVVTYYYGTGYYSYDYWGQGTQVNVSS”, the “polyreactivity (PSR sort gate)” value was “low polyreactivity”.
For “QVQLVESGGGLVQAGGSLRLSCAASGYIFKPNTMGWYRQAPGKERELVAAITRGGRTKYADSVKGRFTISRDNAKNTVYLQMNSLKPEATAVYYCNKVRTVTTYEYWGQGTQVTVSS”, the “polyreactivity (PSR sort gate)” value was “high polyreactivity”.
For “QVQLVESGGGLVQAGGSLRLSCAASGSIFVYNAMAWYRPAPGKERELVAAISRGGRTYADSVKGRFTISRDNAKNTVYLQMNSLKPEDTAVYYCAAQGYYRSWYSRQGHYDYWGQGTQVTVSS”, the “polyreactivity (PSR sort gate)” value was “high polyreactivity”.
In the case of “QVQRVDSGGGLVQAGGSLRLTCAASGSTFDKYAMGWYRQAPGKERELVAAISLSGGSTYYADSVKGRFTISRDNAKNTVYLQMNSLKPEDTAVYYCNTPPSRYVRYGIYRYDYWGQGTQVTVSS”, the “polyreactivity (PSR sort gate)” value is reported as “high polyreactivity”.
With “QVQLVESGGRLVQAGGSLRLSCAASGFIFKLYGMGWYRQAPGKESEMVAAINTSGGRTYYADSVKGRFTISLDNAKNTVYLQMNSLKPEDTAVYYCNTYYSFYGGGYDHWVQGTQVTVSS” the “polyreactivity (PSR sort gate)” value was “high polyreactivity”.
In the case of “QVQLVESGGGLVQAGGSLRLSCAASGLILYSYAMGWYRQAPGKERELVADISSGGITNYADSVKGRFTISRDNAKNTVYLQMNSLKPEDTAVYYCAADTRTSYYNDDYDYWGQGTQVTVSS”, the “polyreactivity (PSR sort gate)” value is reported as “low polyreactivity”.
For “QVQLVESGGGLVQAGGSLRLSCAASGFTFDTYAMGWYRQAPGKERELVAAISWSGGSTYYADSVKGRFTISRDNAKNTVYLQMNSLKPEDTAVYYCAAETPVDWWSTSYNYWGQGTQVTVSS”, the “polyreactivity (PSR sort gate)” value was “high polyreactivity”.
With “QVQLVESGGGLVQAGGSLRLSCAASGFNFPYYAMGWYRQAPGKERELVAAISSSGGSTYYADSVKGRFTISRDNAKNTVYLHMNSLKPEDTAVYYCAADAYSGYSDYYWGQGTQVTVSS” the “polyreactivity (PSR sort gate)” value was “low polyreactivity”.
In the case of “QVQLVESGGGLVQAGGSLRLSCAASGRTYDQYVMGWYRQAPGKERELVAAITSGGSTYYADSVKGRFTISRDNAKNTVYLLMNSLKPEDTAVYYCNARTSVLHDYWGQGTQVTVSS”, the “polyreactivity (PSR sort gate)” value is reported as “low polyreactivity”.
With “QVQLVESGGGLVQAGGSLRLSCAASGITFWFNAMGWYRQAPGKERELVAAITSGVDTNYADSVKGRFTISRDNAKNTVYLQMNSLKPEDTAVYYCAAQGGRLKRGRTTSDYWGQGTQVTVSS” the “polyreactivity (PSR sort gate)” value was “low polyreactivity”.
For “QVQLVESGGGLVQAGGSLRLSCAASGSIIKRNAMGWSIQAPGKERELVASISSGGTYYADSVKGRFTISRDNAKNTVYLQMNSLKPEDSAVYYCATDRGVIYRGISGYIHYDYWGQGTQVTGSS”, the “polyreactivity (PSR sort gate)” value was “low polyreactivity”.
In the case of “QVQLVESGGGLVQAGGSLRLSCAASGLIFPYYTMGWYRQAPGKEGELVAVINRGGSTSYADSVKGRFTISRDNAKNTFYLQMNSLKPEDTAVYYCAARKWRYYSHVIYDYWGQGTQVTVSS”, the “polyreactivity (PSR sort gate)” value is reported as “high polyreactivity”.
With “QVQLVESGGGIFHAGGSLRLRCAASGSIYRGYAMVWYRQAPGKERELVASIRWRGGRTNYADSVKGRFTISRDNAKNTVYLQMNSLKPEDTAVYYCNADQQTIRSGKNDYWGQGTQVTVSS” the “polyreactivity (PSR sort gate)” value was “low polyreactivity”.
In the case of “QVQLVESGGGLVQAGGSLRLTCAASGRTFPGNAMGWYRQAPGKERELVAAISWSVDRTYYADSVKGRFTISRDNAKNTVYLQMNSLKPEDTAVYYCAAVHWWSSSLRMYYWGQGTQVTVSS”, the “polyreactivity (PSR sort gate)” value is reported as “low polyreactivity”.
For “QVQLVESGGGVVQAGGTLRLSCAASGRIFSYYDMGWYRQAPGKERELVAAITWGGGATYYADSVKGRFTISRDNAKNTVYLLMNSLKPEDTAVYYCAADWSPSIWEYDYWGQGTQVTVSS”, the “polyreactivity (PSR sort gate)” value was “low polyreactivity”.
With “QVQLVESGGGLVQAGGSLRLSCAASGRIFAVYAMGWYRQAPGKERELVAAINWNDGSTYYADSVKGRFTISRDNAKNTVYLQMNSLKPEDTAVYYCAARALSRSVYGKSGYKYGYWGQGTQVTVSS” the “polyreactivity (PSR sort gate)” value was “high polyreactivity”.
With “QVQLVESGGGLVQAGGSLRLSCAASGLIFSVNAMGWYRQAPGKERELVAAITWSSGRTYYADSVKGRFTISRDNAKNSVYLQMISLKPEDTAVYYCAGVSYWYGLMYYWGQGTQVTVSS” the “polyreactivity (PSR sort gate)” value was “high polyreactivity”.
For “QVQLVESAGGLVQAGGSLRLSCAASGSTFTSYAMGWYRQAPGKERELVDAITRNGGTTYYADSVKGRFTISRDNAKNTVYLQMNSLKPEDTAVYYCNAPHYYYITSDRRFDYWGQGTQVTVSS”, the “polyreactivity (PSR sort gate)” value was “low polyreactivity”.
In the case of “QVQLVESGGGLVQAGGSLRLSCAASGRIFYYYDMGWYRQAPGKERELVATMSGIGGSTYYADSVKGLFTISRDHAKNTVYLQMNSLKPEDTAVYYCNADYPTSYPLFKTGFDYWGQGTQVTVSS”, the “polyreactivity (PSR sort gate)” value is reported as “low polyreactivity”.
For “QVQLVESGGCLVQAGGSLRLSCAASGLTFADNAMGWYRQAPGKERELVATISYSGGSTYYADSVKGRFTISRDNAKNTVYLQMNSLKPEDTAVYYCAADGNSTGVYLDGGEGFAYDYWGQGSQVTVSS”, the “polyreactivity (PSR sort gate)” value was “low polyreactivity”.
In the case of “QVQLVESGGGLVQAGGSLRLSCAASGITSRRYAMGWYRKAPGKEREFVAAIRTICGSTYYADSVKGRFTISRDNAKNTVYLQMNSLKPEDTAVYYCAARYFLSRSGASHLDSWGQGTQVTVSS”, the “polyreactivity (PSR sort gate)” value is reported as “high polyreactivity”.
In the case of “QVQLVESGGGLVQAGGSLRLSCAASGRTFSQYAMGWYRQPPGKERELVASISWSGGSTYYADSVKGRFTISRDNAKNTVYLQMNSLKPEDTAVYYCAAVGKGSARSSYPVLYDYWGQGTQVTVSS”, the “polyreactivity (PSR sort gate)” value is reported as “low polyreactivity”.
In the case of “QVQLVESGGGLVQAGGSLRLSCAASGRTFVPYAMGWYRQAPGKERELVAAISSGGDTNYADSVKGRFTISRDNAKNTVYLQMNSLKPEDTAVYYCAVGGAGSDDYLGQGTQVTVSS”, the “polyreactivity (PSR sort gate)” value is reported as “low polyreactivity”.
For “QVQLVESGGGLVQAGGSLRLSCAASGYIFVVNAMGWYRQAPGKERELVAAIDWGGGSTYADSVKGRFTISRDNAKNTVYLQMYSLKPEDTAVYYCAADLWPYPNDYWGQGTQVTVSS”, the “polyreactivity (PSR sort gate)” value was “low polyreactivity”.
In the case of “QVQLVESGGGLVQAGGSLRLSCAASGSTFSSYAMGWYRQAPGKERELVAAITSSGGSTYYADSVKGRFTISRDNAKNTVYLQMNSLKPEDTAVYYCAAADVIFWLYYYWGQGTQVTVSS”, the “polyreactivity (PSR sort gate)” value is reported as “low polyreactivity”.
With “QVQLVESGGGLVQAGGSLRLSCAASGSNFYVYAMLWYRQAPGKERELVADITTRDGDTYYADSVKGRFTISRDNAKNTVYLQMNSLKPEDTAVYYCAADLNAYPLRAYDYWGQGTQVTVSS” the “polyreactivity (PSR sort gate)” value was “low polyreactivity”.
For “QVQLVESGGGLVQAGGSLRLSCAASGLIFLEYAMGWYRQAPGKERELLAAISTSGGSTYYADSVKGRFTISRDNAKNTVYLQMNSLKPEDTAVYYCAAEPVYNYYFHDGDYWGQGTQVTVSS”, the “polyreactivity (PSR sort gate)” value was “low polyreactivity”.
With “QVQIVESGGGLVQAGGSLRLSCAASGRIIGTYAMGWYRQAPGKERELVATISYSSGRTYYADSVKGRFTISRDNAKNTVYLQMNSLKPEVTAVYYCAAVGTGSSLRYDYWGQGTQVTVSS” the “polyreactivity (PSR sort gate)” value was “high polyreactivity”.
In the case of “QVQLVESGGGLVQAGGTLRLSCAASGSTFGWYAMGWYRQAPGKVREFVAAIRGGGSSTYYADSVKWRFTISRDNAKNSVSLQKNSLKQEVTAVYYCAAVTSQLYGKRYYYWGQGTQGTVSS”, the “polyreactivity (PSR sort gate)” value is reported as “high polyreactivity”.
In the case of “QVQLVESGGGLVQAGGSLRLSCAASGSIFPYYAMGWYRQAPGKEREFVASISSVTSTYADSVKGRFTISRDNAKNTVYLQMNSLKPEDTAVYYCAADRAYSWYSVSRYNYWGQGTQVTVSS”, the “polyreactivity (PSR sort gate)” value is reported as “low polyreactivity”.
